# Key:
# Assay in all cases: cell_activity
# [1] = biological target: SpCas9 K810A K810A (Streptococcus pyogenes) (UniProt Q99ZW2)
# [2] = biological target: SpCas9 K848A K848A (Streptococcus pyogenes) (UniProt Q99ZW2)
# [3] = biological target: SpCas9 K1003A K1003A (Streptococcus pyogenes) (UniProt Q99ZW2)
# [4] = tested on: SpCas9 R976A R976A (Streptococcus pyogenes)
# [5] = biological target: SpCas9 K855A (Streptococcus pyogenes) (UniProt Q99ZW2)
# [6] = biological target: SpCas9 R1060A R1060A (Streptococcus pyogenes) (UniProt Q99ZW2)
# [7] = biological target: SpCas9 R780A R780A (Streptococcus pyogenes) (UniProt Q99ZW2)
# [8] = tested on: SpCas9 H982A H982A (Streptococcus pyogenes)
Substance,activity ([1]; WT 8.8),activity ([2]; WT 8.8),activity ([3]; WT 8.8),activity ([4]; WT 8.8),activity ([5]; WT 8.8),activity ([6]; WT 8.8),activity ([7]; WT 8.8),activity ([8]; WT 8.8),activity ([1]; WT 10.5),activity ([2]; WT 10.5),activity ([3]; WT 10.5),activity ([4]; WT 10.5),"activity ([5]; WT 10.5, on-target 25.1 in same table)",activity ([6]; WT 10.5),activity ([7]; WT 10.5),activity ([8]; WT 10.5)
EMX1(1) sgRNA guide ; EMX1 OT46,0.1 % indel,0.1 % indel,2.8 % indel,0.1 % indel,0.3 % indel,1.8 % indel,0.1 % indel,0.4 % indel,,,,,,,,
EMX1(1) sgRNA guide ; EMX1 OT25,,,,,,,,,0.1 % indel,0.1 % indel,4.1 % indel,0.1 % indel,0.2 % indel,1.3 % indel,0 % indel,0.5 % indel

# Source: patent publication US20190032036
